From patent US20030082809A1 (University of California, published 2003)

Experiments:
Assay in all cases: cell-based or functional assay
[1] = molecular target: GAD, GAL4-activation domain alone (UniProt P04386)
[2] = molecular target: PIF3:GAD fusion protein (PIF3-GAL4-activation-domain fusion) (Arabidopsis) (UniProt O80536)
[3] = molecular target: T1, PIF3:GAD fusion protein (PIF3-GAL4-activation-domain fusion) (Arabidopsis, UniProt O80536 1-524, limits assumed)
T1 sequence: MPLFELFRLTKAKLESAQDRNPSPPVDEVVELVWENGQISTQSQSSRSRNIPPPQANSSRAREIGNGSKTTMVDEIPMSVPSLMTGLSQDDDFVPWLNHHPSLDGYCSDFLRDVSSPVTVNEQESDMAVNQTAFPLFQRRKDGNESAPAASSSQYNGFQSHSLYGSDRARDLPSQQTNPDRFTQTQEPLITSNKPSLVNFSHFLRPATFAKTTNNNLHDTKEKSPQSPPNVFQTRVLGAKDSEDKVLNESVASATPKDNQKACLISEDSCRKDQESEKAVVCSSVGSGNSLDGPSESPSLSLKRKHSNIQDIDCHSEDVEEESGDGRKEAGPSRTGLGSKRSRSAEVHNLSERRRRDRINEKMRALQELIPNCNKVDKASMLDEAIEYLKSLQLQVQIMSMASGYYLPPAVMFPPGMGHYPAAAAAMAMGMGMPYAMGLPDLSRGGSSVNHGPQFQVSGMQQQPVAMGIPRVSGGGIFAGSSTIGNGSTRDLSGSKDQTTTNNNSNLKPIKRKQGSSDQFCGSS

GAD, GAL4-activation domain alone, sequence (P04386 768-881 limits assumed): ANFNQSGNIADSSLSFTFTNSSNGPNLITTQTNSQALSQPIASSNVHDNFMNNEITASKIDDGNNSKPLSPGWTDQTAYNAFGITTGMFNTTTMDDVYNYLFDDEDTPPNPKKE

GBD, GAL4 DNA-binding domain alone (from UniProt P04386 1-147)
LacZ activity (M. U.), yeast two-hybrid liquid assay, Dark [1]: 0.1 M. U.
LacZ activity (M. U.), yeast two-hybrid liquid assay, Rp [1]: 0.2 M. U.
LacZ activity (M. U.), yeast two-hybrid liquid assay, Rp/FRp [1]: 0.2 M. U.

phyB(NT):GBD fusion protein, Pr form (PCB chromophore, in darkness or after far-red light) (from UniProt P14713 1-621; P04386 1-147)
LacZ activity (M. U.), yeast two-hybrid liquid assay, Dark [2]: 0.1 M. U.
LacZ activity (M. U.), yeast two-hybrid liquid assay, Rp/FRp (red pulse followed at once by far-red pulse) [2]: 0.1 M. U.

B1: phyB(NT):GBD fusion protein, Pfr form (PCB chromophore, after red light) (other, UniProt P14713 1-621, looked up)
chain: MVSGVGGSGGGRGGGRGGEEEPSSSHTPNNRRGGEQAQSSGTKSLRPRSNTESMSKAIQQYTVDARLHAVFEQSGESGKSFDYSQSLKTTTYGSSVPEQQITAYLSRIQRGGYIQPFGCMIAVDESSFRIIGYSENAREMLGIMPQSVPTLEKPEILAMGTDVRSLFTSSSSILLERAFVAREITLLNPVWIHSKNTGKPFYAILHRIDVGVVIDLEPARTEDPALSIAGAVQSQKLAVRAISQLQALPGGDIKLLCDTVVESVRDLTGYDRVMVYKFHEDEHGEVVAESKRDDLEPYIGLHYPATDIPQASRFLFKQNRVRMIVDCNATPVLVVQDDRLTQSMCLVGSTLRAPHGCHSQYMANMGSIASLAMAVIINGNEDDGSNVASGRSSMRLWGLVVCHHTSSRCIPFPLRYACEFLMQAFGLQLNMELQLALQMSEKRVLRTQTLLCDMLLRDSPAGIVTQSPSIMDLVKCDGAAFLYHGKYYPLGVAPSEVQIKDVVEWLLANHADSTGLSTDSLGDAGYPGAAALGDAVCGMAVAYITKRDFLFWFRSHTAKEIKWGGAKHHPEDKDDGQRMHPRSSFQAFLEVVKSRSQPWETAEMDAIHSLQLILRDSFKESMKLLSSIEQACDICRLKKLKCSKEKPKCAKCLKNNWECRYSPKTKRSPLTRAHLTEVESRLERLEQLFLLIFPREDLDMILKMDSLQDIKALLTGLFVQDNVNKDAVTDRLASVETDMPLTLRQHRISATSSSEESSNKGQRQLTVS
modifications: phycocyanobilin (PCB) chromophore attached to the phytochrome moiety (residue not stated); Pfr conformer after red light
LacZ activity, fold induction 5 min after a 1 min saturating red-light pulse [3]: 2 fold
LacZ activity, fold induction 10 min after a 1 min saturating red-light pulse [3]: 4 fold
LacZ activity, fold induction 30 min after a 1 min saturating red-light pulse [3]: 50 fold
induction of LacZ expression above background by a single red-light pulse [3]: 1000 fold
